What was measured:
[1] = biological target: T1, FUS C-terminal RNA-binding module (His6-FUS) (UniProt P35637 269-526); experiment: EMSA; 150 mM KCl; supershift with anti-His; EMSA: 1 uM RNA, 0/0.1/1/5 uM His6-FUS, 50 mM HEPES-KOH (or HEPES-LiOH) pH 7.4, 150 mM KCl (or LiCl), 200 ng BSA, 2 mM EDTA, 2 mM DTT, 5% glycerol, 30 min 30 C; conditions: protein: recombinant, tags: His6 (pET28a-TEV), label: none (SYBR Gold stain)
[2] = biological target: T1, FUS C-terminal RNA-binding module …; experiment: EMSA; 150 mM KCl; EMSA: 1 uM RNA, 0/0.1/1/5 uM His6-FUS, 50 mM HEPES-KOH (or HEPES-LiOH) pH 7.4, 150 mM KCl (or LiCl), 200 ng BSA, 2 mM EDTA, 2 mM DTT, 5% glycerol, 30 min 30 C; conditions: protein: recombinant; tags: His6 (pET28a-TEV); label: none (SYBR Gold stain); none (non-G4)

T1 sequence (P35637 269-526): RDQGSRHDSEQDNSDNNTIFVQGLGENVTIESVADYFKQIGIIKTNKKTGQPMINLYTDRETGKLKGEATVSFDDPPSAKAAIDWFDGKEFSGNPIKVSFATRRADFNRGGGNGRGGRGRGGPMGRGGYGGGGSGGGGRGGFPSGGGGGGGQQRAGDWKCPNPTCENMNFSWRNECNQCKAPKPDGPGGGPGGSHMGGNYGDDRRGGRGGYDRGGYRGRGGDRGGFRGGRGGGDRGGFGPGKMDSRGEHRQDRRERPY

| Binder | binding result [2] | binding result ([1]; intramolecular G4 (in K+)) | further results |
| --- | --- | --- | --- |
| UGGUGCGCGGGUCCCGGGGAGGGGA (structured_RNA) [25COPS9 WT] |  |  | binding result ([1]; G4 (in K+)): binds |
| UGUUGCGCGUGUCCCGUGGAGUGGA (ssRNA) [25COPS9 mutant] | no binding |  |  |
| UUAGGGUUAGGGUUAGGGUUAGGG (structured_RNA) [TERRA WT] |  | binds |  |
| AGUGUGAGUGUGUGUGUGCAGUGAGUGU (ssRNA) [28RPL23A mutant] | no binding |  |  |
| AGGGGGAGGGUGUGGGGGCAGUGAGGGU (structured_RNA) [28RPL23A WT] |  | binds |  |
